Where two headings read alike, the source gives them in different places.
B1: Synechocystis sp. PCC 6803 GCS T-protein (aminomethyltransferase), recombinant (enzyme)
chain: MANLFPALRTPLYNLITEQTTKLTTFGGWEMPVQFAGLKQEHQAVREKVGMFDISHMGKFVLTGQKVLAALQSLVPSDLDRLTPGKAQYTVLLNAQGGIIDDIIVYDQGKNPEGQERVTLIVNAATTVKDKQWLLEHLPEEIDFQDLSREKVLIALQGPEALTILQPLVDQNLGELPAFGHLEAEFLREKAFIARTGYTGEDGFEIMVSPEVGKQLWQTFGSKGVTPCGLGARDTLRLEAGMGLYGQDMNDETTPLEAGLGWLVHLDSKGDFIGRAVLTEQKANGVEKRLVGLEMLAKQIARHDYPILHNGEIMGIVTSGTLSPTLQKAIALGYVPTELAKVGQELEVEVRGKTYGIKVVKKLFYRSEQKPR
B2: Synechocystis sp. PCC 6803 GCS L-protein (dihydrolipoamide dehydrogenase), recombinant (enzyme)
chain: MSQDFDYDLVIIGAGVGGHGAALHAVKCGLKTAIIEAKDMGGTCVNRGCIPSKALLAASGRVREMSDQDHLQQLGIQINGVTFTREAIAAHANDLVSKIQSDLTNSLTRLKVDTIRGWGKVSGPQEVTVIGDNETRILKAKEIMLCPGSVPFVPPGIEIDHKTVFTSDEAVKLETLPQWIAIIGSGYIGLEFSDVYTALGCEVTMIEALPDLMPGFDPEIAKIAERVLIKSRDIETYTGVFATKIKAGSPVEIELTDAKTKEVIDTLEVDACLVATGRIPATKNLGLETVGVETDRRGFIEVNDQMQVIKDGKPVPHLWAVGDATGKMMLAHAASGQGVVAVENICGRKTEVDYRAIPAAAFTHPEISYVGLTEAQAKELGEKEGFVVSTAKTYFKGNSKALAEKETDGIAKVVYRQDTGELLGAHIIGIHASDLIQEAAQAIADRKSVRELAFHVHAHPTLSEVLDEAYKRAV
B3: Synechocystis sp. PCC 6803 GCS P-protein (glycine decarboxylase), recombinant (enzyme)
chain: MPNLEPAVVVPTSEAIAVDLTKLEEKLAPADSFLDRHLGPGETEQRQMLQTLGFDTLGDLIDQAVPPAIRFPRSLQLPASQSEYGAIAQLKSIASKNQVFRSYIGMGYYDTITPPVIQRNILENPGWYTAYTPYQAEIAQGRLEALLNFQTMVMDLTGLEIANASLLDEGTAAAEAMALSYGVSKSKANAFFVAQDCHPQTIEVIKTRANPLGIEVIVGDHHTFSFSTSIFGALLQYPATDGAVYDYRSFIDKAHQHQALVTLAADPLSLTLLTPPGELGADIAVGSTQRFGIPLGYGGPHAAYFATKAEYQRKMPGRIVGVSKDAHGNPALRLALQTREQHIRRDKATSNICTAQVLLAVMASMYGVYHGSTGLKNIALRIHQLTVLLAIGLKRLNYSLNNDYFFDTLRVGVGEQSAPAILKAAEGRGINLRPLVPGEVGISLDETVTVQDLLDLWQVFAGKDNLPFTPEELWSEVKTSFPADLTRQSLYLQDAVFNQYHSETELLRYLHQLESKDLALNTSMIPLGSCTMKLNATAEMMPVTWPEFGKIHPFAPAGQTEGYQILFAQLEAWLGEITGFDAISLQPNAGSQGEYAGLQVIRQYHLSRGEEQRNICLIPESAHGTNPASAVMCGMQVVPVKCDGEGNIDVEDLTSKAEKYGDRLAALMVTYPSTHGVFEATIGTICDIVHRFGGEVYMDGANMNAQVGLCRPADFGADVCHLNLHKTFCIPHGGGGPGMGPIGVKSHLQAFLPRTSLNSTAELQAEDQSIGMISAAPYGSASILVISWMYIAMMGPQGLTKATEVAILSANYMAKRLENYYPILFRGNNELVAHECILDLRPLKKQAAIEVEDVAKRLMDFGFHAPTVSWPVLGTMMVEPTESESLGELDRFCDAMIAIYQEAQAITHGEIDPADNPLKNAPHTAQSLICGEWNHPYSQEEAAYPAPWTKQFKFWPAVGRINNTYGDRHLVCSCEGMEAYKEG

Experiments:
native gel or EMSA = molecular target: the molecule itself; assay: native gel or EMSA
[1] = molecular target: B2; assay: molecular mass cut-off filtration
[2] = molecular target: B3; assay: molecular mass cut-off filtration
SEC [3] = molecular target: the molecule itself; assay: SEC
[4] = molecular target: B1; assay: SEC
SEC [5] = molecular target: the molecule itself; assay: SEC; remark: listed apart in the source
[6] = molecular target: B1; assay: SEC; remark: listed apart in the source

| Binder | binding result (native gel or EMSA) | stoichiometry N [1] | binding result [2] | stoichiometry N (SEC [3]) | stoichiometry N [4] | stoichiometry N (SEC [5]) | stoichiometry N [6] |
| --- | --- | --- | --- | --- | --- | --- | --- |
| B1 | binds | ~3 T per L2 dimer | binds | – | – | – | – |
| Synechocystis sp. PCC 6803 GCS H-protein, recombinant, lipoylated holoprotein (natural protein, lipoyl cofactor on the lipoyl-binding lysine (full lipoylation confirmed by native PAGE); residue number not given) MELEHPDDLYYLDSHEYVRFDGETATIGLSAFAVDELGDIVFVELPEEGDKVEFEQSMGAVESVKAASDLYSPVTGTVIEKNSALEDQPELLNQDPYGEEGWLIKVRLDDVEDAKEGLMAAGDYRATLETGD | – | ~26 H per L2 dimer | binds | ~4 | ~4 H per T | 2 | ~2 H per T |
| B2 | – | – | – | 2 | – | – | – |
| B3 | – | ~0.25 P2 dimer per L2 dimer | – | 2 | – | – | – |

— paper doi:10.1101/2020.03.16.993188 (bioRxiv, 2020)
